Measured values reported in the supplement of paper PMC12042874.
± gives the uncertainty stated by the source.

Assay: amyloid nucleation score (Sup35N fusion, yeast selection) (log enrichment); library NNK2; higher = more nucleation; inactive = no reads after selection
How it was run: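 Peptides of 20 random codons fused to Sup35N were expressed in psi-negative yeast, induced 24 hours with 100 μM copper sulfate, then grown 7 days at 30°C on medium lacking adenine and uracil. Input and output plasmid inserts were Illumina-sequenced. Nucleation score is the DiMSum log enrichment of output over input reads, centred on the mode score of non-aggregating sequences, excluding sequences with under 100 input reads. Random libraries had three technical output replicates.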

Substance	amyloid nucleation score
SISSGFFWKEAIKGSAVSLW	0.36 ± 0.8
FVYNQWSYRLRYLTVAIRD	-0.111 ± 0.56
RAACFSAAHRTDWTWPDGDM	2.49 ± 0.19
IVHWSLHFMRGKSAYYQYVV	inactive
SCSHYTVECKGAWGFCACGH	0.085 ± 0.36
QIMLAGLRSLDLTVDRTFNS	inactive
WQTEFIYSQVSTVGYKRLEG	2.38 ± 0.089
MLLIRGHILIPGADLTIIPE	-0.692 ± 0.56
NTCGMRSLGKTFRIVSSLGS	0.285 ± 0.43
IDRCRNC	inactive
GFRVVCHILALCRYGTCLEI	-0.608 ± 0.35
CINYG	0.96 ± 0.39
SHCSLEDG	1.22 ± 0.12
RSTQLNSGPTANK	1.21 ± 0.41
GINVCFKHTMV	3.28 ± 0.062
SQALCDGALYTHFAISSIDR	inactive
WLLILLDISTSDFLQCWIGM	-0.037 ± 0.65
SHCCGFLRGGWNRAQFGYRT	3.38 ± 0.049
MHHQSSAFNQGHASPYLSWK	0.741 ± 0.39
CLRGSR	0.03 ± 0.2
FYHISEVLVVPLRLELSVQL	5.68 ± 0.07
VTFLGDIRYFRCWCL	9.561 ± 0.077
YGDMAVFVG	1.07 ± 0.41
RCTGDLGRVARFWYETVKLN	-0.066 ± 0.39
TSAPSKSLLLGVIIIGAFPD	inactive
CHSLRILRPRIYSVQVMLIG	-0.01 ± 0.63

Substance	amyloid nucleation score
GRLYHGVVTCSGRNGINRGS	2.92 ± 0.19
RMETTKPIRSSGTSITAPNG	1.53 ± 0.53
YEMFHAILCY	-0.101 ± 0.8
DVACNTRKPCS	-0.908 ± 0.78
TVRFVRFYSPLWLSVTYRLT	0.412 ± 0.55
AYVRNAIGTMFLLALSHRGD	-0.345 ± 0.48
VGPFSDH	-0.472 ± 0.79
TLFSMVNSTLNGWWIMT	6.84 ± 0.061
GEAFRKDPLRCYMFQGIIEQ	2.1 ± 0.14
ADSVYAVRRKAV	0.356 ± 0.8
YYVWVI	-0.698 ± 0.78
LYLYGDYV	7.65 ± 0.079
HLDYAGYIGDRSHTDFASGR	0.519 ± 0.46
SWLTRIC	-0.249 ± 0.63
PATDPWCS	-0.14 ± 0.25
LRWRSCGNELDFKLNGLDFE	0.586 ± 0.74
SNSYGGDTQRY	-0.517 ± 0.33
RINNS	-1.44 ± 0.45
WNLYSLSN	inactive
VKDDTSHPYRGFYYRVIRRN	1.08 ± 0.16
ICKFFSIGVH	1.14 ± 0.68
WARCHVLA	-0.292 ± 0.55
KLCKVYVRRRSIICWGNCVP	-0.481 ± 1.1
KILRVKRQGRGSRNR	-0.055 ± 0.55
IHLPKCISVSFRVSVGFLDM	inactive
GLPYVSMINLHASYTERMVW	-0.687 ± 0.64

Substance	amyloid nucleation score
LRGLVMRCAFIVKGLGLCEG	0.979 ± 0.22
YRPAWMDWF	1.78 ± 0.16
KSRPSTV	-1.68 ± 1
TSWCSIHTVMLYLFLIVCQY	inactive
FEYIVVESVCRSWWNLVS	-0.051 ± 0.55
NDWCRGENITALWDGYGSGL	0.597 ± 0.46
SGYVLNAELNAASLLMCGIG	0.252 ± 0.74
YYTQRAAFIWKVICKVDVYV	2.46 ± 0.18
CEVSGYARWLGQHYWSAVRA	1.69 ± 0.32
NMKSWGSVV	-0.145 ± 0.79
GSAGNYRRY	0.167 ± 0.56
YGFGHRGNMTAWLSMATKTF	-0.109 ± 0.76
NIIACMYKLEDSGRQFSMLE	5.214 ± 0.046
SQIRFWSRPRDCFGFLMRYV	-0.852 ± 1
LCGNRGFYDH	-0.177 ± 0.54
KRSMKESWVYNLCNRVYCKG	0.467 ± 0.8
MHLCADPAGFWDWN	-0.446 ± 1
EYSTFPRRSDRSEIHFSINL	3.47 ± 0.12
NVRTYCGFKSSNIRRWVSRH	inactive
ISDRSTHQASVLTFSPPDFY	inactive
VMCFNAVSLTFVFRDMTSYY	8.804 ± 0.05
SSSTFCCLWTFDTRVQFLVN	7.39 ± 0.079
RIYRRNQWVPGGDYSKGINL	-0.892 ± 0.76
PHLTMFKARYIDTFAPRS	-0.672 ± 0.5
ASIPINHPHRVRLNTSYECI	-0.657 ± 0.56
MGLTEEVIKWQGHVGWTWAG	1.55 ± 0.29

Substance	amyloid nucleation score
RMLFVHPVGYGCEAAVGSSW	1.09 ± 0.23
YSYWLSILRNVEL	4.18 ± 0.079
RFVVWRHFSWIATMLSTIPV	1.13 ± 0.35
HSFTTMFWNSAMY	4.11 ± 0.062
YRKSWVWVLLESASAMLIGL	0.682 ± 0.22
ILHPADQNSCT	-1.26 ± 0.34
WRLCVWPRCGTAKLS	0.24 ± 0.32
GRAYHESLSGDFVLFSSRRC	-0.815 ± 0.63
VWELDRVVR	0.783 ± 0.53
RMLLIGIRCLIMSWHMLHN	-0.029 ± 0.37
YVQTSKCGS	7.1 ± 0.055
WTQGFYTFSDHAPLVIILLE	inactive
RLCWWLVWS	0.166 ± 0.76
GQYLVSKFGIEHTA	0.307 ± 0.17
RCVGNCMMSLRAEYD	2.8 ± 0.079
WLQSETIHDVRSLRWVSIKC	0.043 ± 0.74
CCSVCFRRLLYLLSRR	6.9 ± 0.068
LTVTW	1.2 ± 0.21
VLTLPKRNHVHL	0.874 ± 0.35
TCLVCVTEVAHDSHLNRVSH	7.08 ± 0.082
CVSVGCVESGTMICQLKLSQ	7.19 ± 0.075
IGSRSMNYWLVVFD	1.48 ± 0.11
KNDFLNM	inactive
SSLGA	-0.059 ± 0.5
KLHRSESVHVICTVCS	1.17 ± 0.3
VYYVWRNCLSDCLYYILTYF	-2.05 ± 0.78

Substance	amyloid nucleation score
EVVLSAILQHYMSFVSGDDL	-0.201 ± 0.41
ITAGVPVFYL	-1.22 ± 1.1
RNGFAIRITANHYTQLVYDL	3.82 ± 0.094
LKCVHCYIRHLNFYFILPLC	inactive
FWLLSTCGV	-0.408 ± 0.29
FWYFPDIIWG	inactive
PGLPEERHNCKTYCHRTSRP	0.016 ± 0.34
PYNMVVYLGLLSRC	0.919 ± 0.17
HILRRINIWGGFPCMRVSKN	-0.755 ± 1.1
HESHHSALFDCLGWQVLVWL	6.827 ± 0.049
FLKCNLTVDLIVMMKNIFSY	1.02 ± 0.39
RVDLVDSSICADANLLG	1.17 ± 0.26
HERGTNVLYTLVEWGARAVS	1.16 ± 0.49
LIAFMRF	5.688 ± 0.042
CNFSCGPKNQKNSMILWILN	inactive
CIVMLRTIIQRSFNMSMTHY	3.2 ± 0.058
FYLNKDNLWNSNLGGSAHKC	-2.38 ± 1.1
VALRWTIRQWFSDVYPWSWY	0.802 ± 0.45
CFPSILSRFINLRCPGRSSY	inactive
VGYLRELLYAEGT	-0.476 ± 0.35
SVDIHGTFWHILYSIAPDQV	1.75 ± 0.23
LCAGGVGRRWLVLDTAECDG	0.59 ± 0.64
NGAYNACNNTGYRTHAY	-0.818 ± 0.78
TVWCWVDRTMGLEWTYLTA	1.1 ± 0.23
